Laboratory results: US20190241662A1 (ADAGENE, published 2019)
Positions count from the first letter of the chain named. Read-outs that look alike come from different tables or passages of the source.

Tests used:
[1] = molecular target: T1, monkey CTLA4 (SPR analyte, construct not stated) (monkey, UniProt G7PL88 36-161); experiment: SPR (Biacore T200), IgG captured by anti-human Fc
T1 sequence: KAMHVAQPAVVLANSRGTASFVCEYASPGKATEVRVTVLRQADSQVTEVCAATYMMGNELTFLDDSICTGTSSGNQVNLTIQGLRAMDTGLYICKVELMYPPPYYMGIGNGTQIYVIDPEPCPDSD
Description: (§1) Binding affinity and kinetics of antibodies against human, monkey and mouse CTLA4 were examined (Table 4) by surface plasmon resonance (SPR) analysis using a Biacore™ T200 instrument (Biacore AB, Uppsala, Sweden) according to the manufacturer's guidelines. Anti-Human IgG (Fc) antibody from Human Antibody Capture Kit (GE BR-1008-39) was immobilized on CM5 chips by coupling of its amine groups onto carboxylated surfaces of sensor chips according to the instructions of an Amine Coupling kit (GE Biacore #BR-1000-50). […] The association and dissociation curves were fitted to a 1:1 Langmuir binding model using Biacore T200 Evaluation Software (Biacore AB) according to the manufacturer's guidelines.

[2] = molecular target: T2, recombinant human CTLA4 protein (construct not stated) (human, UniProt P16410 36-162, limits assumed); experiment: SPR (Biacore T200), IgG captured by anti-human Fc
T2 construct: also called biotinylated human CTLA4; human recombinant CTLA4 proteins
T2 sequence (looked up): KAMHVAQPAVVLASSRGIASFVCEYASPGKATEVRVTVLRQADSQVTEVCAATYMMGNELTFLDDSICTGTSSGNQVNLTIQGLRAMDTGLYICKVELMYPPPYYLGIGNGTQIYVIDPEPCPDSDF
Description: as §1

[3] = molecular target: mouse CTLA4 (SPR analyte, construct not stated) (mouse, UniProt P09793 36-162, limits assumed); experiment: SPR (Biacore T200), IgG captured by anti-human Fc
Description: as §1

[4] = molecular target: T3, recombinant human CTLA4-Fc (human, UniProt P16410 36-162); experiment: BLI Octet, CTLA4-Fc on AHC sensor, Fab 10 ug/mL
T3 construct: also called human CTLA4 fused with human FC fragment; CTLA4-Fc (Sino Biological, 11159-H03H)
T3 sequence (looked up): T2 sequence (looked up)
Description: Proprietary phagemid libraries (see PCT application number PCT/CN2017/098333, incorporated herein by reference in its entirety; see also PCT application number PCT/CN2017/098299, incorporated herein by reference in its entirety) were employed to pan against human CTLA4 antigens. A total of 3-5 rounds of panning were conducted. After the final round of panning, single-colony supernatant ELISA was performed to identify the primary hits that specifically recognized human CTLA4 (see e.g., UniProt Accession Number P16410). The primary hits were defined as those whose ELISA signals were at least twice that of background. The hits were then sequenced, and the unique clones were expressed in E. coli and purified. Their affinities against human CTLA4 were measured by ForteBio Octet RED96 Systems. […] The acquired ForteBio data were processed with Data Acquisition software 7.1, and kinetic data were fitted to a 1:1 Langmuir binding model.

[5] = molecular target: T3, recombinant human CTLA4-Fc; experiment: ELISA, coated human CTLA4-Fc (as in Example 8)
Description: (§2) Plates were blocked with PBS supplemented with 3% non-fat milk at 37° C. for 1 hour. After washing, 100 μL of 3-fold serial dilutions of antibodies were added to each well. After incubation at 37° C. for 1 hour, plates were washed four times, and 100 μL HRP conjugated anti-human IgG (Fab specific) (1:6000 dilution) was added to each well. Plates were incubated at 37° C. for 1 hour, washed four times, and then 50 μL TMB substrate solution was added to each well, and the plate was incubated at room temperature. […] The EC₅₀ was evaluated by fitting the ELISA data using the asymmetrical sigmoidal (five-parameter logistic equation) model of GraphPad Prism 6 software.

[6] = molecular target: T3, recombinant human CTLA4-Fc; experiment: ELISA; EC50 divided by the EC50 of TY21580
Description: as §2

[7] = molecular target: T3, recombinant human CTLA4-Fc; experiment: ELISA, coated human CTLA4-Fc (as in Example 8); remark: listed apart in the source
Description: as §2

[8] = molecular target: T4, recombinant human CTLA4 fused with human Fc and His tag (human, UniProt P16410 36-162, limits assumed); experiment: competition ELISA: plate-bound human CTLA4-Fc-His, biotinylated CD80 as blocked ligand
T4 construct: Coated in the CD80 ELISA, biotinylated and in solution in the CD86 ELISA; also called biotinylated human CTLA4 fused with human FC and His tag
T4 sequence (looked up): T2 sequence (looked up)
Description: Antibodies were then tested for their ability to block binding of CTLA4 to its cognate ligands CD80 and CD86 by ELISA. […] Plates were blocked with PBS supplemented with 2% (w/v) skim milk at 37° C. for 1 hour. […] Plates were washed four times, and 100 μL HRP-neutravidin (1:1000) was added to each well and incubated at 37° C. for 1 hour. Plates were washed as previously described, and 50 μL TMB substrate solution was added and incubated at room temperature for 5 minutes before the reaction was stopped by 50 μL sulfate acid (2M).

[9] = molecular target: T5, full-length mouse CTLA4 expressed on HEK293F cells (mouse, UniProt P09793 36-223); experiment: flow cytometry, transfected HEK293F cells, antibody concentration not printed [Cont.]
T5 construct: whole, on cells
Description: (§3) The affinities of the antibodies were also assessed against human and mouse CTLA4 transiently expressed on the surface of HEK293F cells (FIG. 2). Briefly, HEK293F cells were transfected with a plasmid expressing full-length human, monkey or mouse CTLA4 from a bicistronic IRES vector also encoding EGFP, and EGFP expression was used to identify the transfected cells. After 48 hours, the mammalian cell suspension (2×10⁵/well) was transferred to an Eppendorf tube, centrifuged, the supernatant was discarded, the cells were resuspended with 1 mL PBSA (to a density is 4×10⁶ cells/mL), and added to a 96 well plate. […] The cells were then washed once prior to analysis by flow cytometry (Beckman® CytoFlex).

[10] = molecular target: T6, full-length human CTLA4 expressed on cells (human, UniProt P16410 36-223); experiment: as above
T6 construct: whole, on cells; also called HEK293F/hCTLA-4 cells; HEK293F/hCTLA4 cells
T6 sequence (looked up): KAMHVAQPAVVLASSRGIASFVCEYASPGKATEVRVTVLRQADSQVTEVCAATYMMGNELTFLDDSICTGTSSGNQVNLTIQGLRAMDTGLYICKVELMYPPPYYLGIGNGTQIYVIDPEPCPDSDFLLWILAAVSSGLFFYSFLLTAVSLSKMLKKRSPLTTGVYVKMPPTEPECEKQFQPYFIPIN
Description: as §3

[11] = molecular target: T6, full-length human CTLA4 expressed on …; experiment: flow cytometry blocking: HEK293F cells with human CTLA4, 100 nM antibody, then 100 nM CD80-Fc-Bio (blocked ligand); PBSA panel: Mean 157692, 26.3%
Description: Antibodies were also tested for their ability to block binding of CTLA4 to its cognate ligands CD80 and CD86 by flow cytometry. The plasmid encoding full-length human CTLA4 was transiently expressed in HEK293F cells. Cells were washed with staining buffer (PBSA buffer including 1.76 mM KH₂PO₄, 10.14 mM Na₂HPO₄.12H₂O, 2.68 mM KCl, 136.89 mM NaCl and 1% BSA), and resuspended in staining buffer containing 100 nM test antibodies. […] Cells were washed once, and analyzed by CytoFlex flow cytometry.

B1: TY21692 (antibody, V domains shown)
VH: EVQLVESGGGLVQPGGSLRLSCAASGYSITSGHYWSWIRQAPGKGLEWIGDISHSGSTYYSQSLKSRVTISRDNSKNTLYLQLNSLRAEDTAVYYCARGSRTGYFDYWGQGTLVTVSS
VL: DIQLTQSPSSLSASVGDRVTITCRASQSISSYLNWYQQKPGKAPKLLIYDASNLETGVPSRFSGSGSGTDFTLTISSLQPEDFATYYCQHHYGTPLTFGQGTKVEIKR
notes: human IgG1 (hIgG1) from Fab hit B16083
With B1 the Kd [1] was 2.76 nM, the Kd [2] was 3.95 nM and the Kd [3] was 1.12 nM.

B2: B15716 (Fab, V domains shown)
VH: EVQLVESGGGLVQPGGSLRLSCAASGYSITSGYYWAWIRQAPGKGLEWVSSISGSGSTTYYADSVKGRFTISRDNSKNTLYLQLNSLRAEDTAVYYCARDGFGYFDYWGQGTLVTVSS
VL: DIQLTQSPSSLSASVGDRVTITCSASSSVSYVYWYQQKPGKAPKLLIYDASSLESGVPSRFSGSGSGTDFTLTISSLQPEDFATYYCVQGLQTPWTFGQGTKVEIKR
notes: Fab from E. coli; also called Fab hit of TY21586
Binder B2 has a Kd [4] of 12.1 nM.

B3: B15756 (Fab, V domains shown)
VH: EVQLVESGGGLVQPGGSLRLSCAASGFSLSTGGVAVSWIRQAPGKGLEWIGEIYHSGSTYYSPSLKSRVTISRDNSKNTLYLQLNSLRAEDTAVYYCARRIATATYFDYWGQGTLVTVSS
VL: DIQLTQSPSSLSASVGDRVTITCRASQTVFSRYLAWYQQKPGKAPKLLIYDASNRATGIPSRFSGSGSGTDFTLTISSLQPEDFATYYCQQSYYWPPWTFGQGTKVEIKR
notes: Fab from E. coli; also called Fab hit of TY21591
Work on B3 yielded a Kd [4] of 55.5 nM, a koff [4] of 0.00663 s⁻¹ and a kon [4] of 120000 M⁻¹ s⁻¹.

B4: TY22775 (antibody, V domains shown)
VH: EVQLVESGGGLVQPGGSLRLSCAASGYSISSGYHWSWIRQAPGKGLEWLARIDWDDDKYYSTSLKSRLTISRDNSKNTLYLQLNSLRAEDTAVYYCARSYVYFDYWGQGTLVTVSS
VL: EVGHSDCDAFYPYCDSSGRSAGGGGTPLGLAGSGGSDIQLTQSPSSLSASVGDRVTITCRASQSVRGRFLAWYQQKPGKAPKLLIYDASNRATGIPSRFSGSGSGTDFTLTISSLQPEDFATYYCQQSSSWPPTFGQGTKVEIKR
With B4 the EC50 [5] was 37.3 nM and the masking efficiency [6] was 168.

B5: TY23286 (antibody, V domains shown)
VH: B4 VH
VL: DIQLTQSPSSLSASVGDRVTITCRASQSVRGRFLAWYQQKPGKAPKLLIYDASNRATGIPSRFSGSGSGTDFTLTISSLQPEDFATYYCQQSSSWPPTFGQGTKVEIKR
Binder B5 has an EC50 [7] of 1500 nM.

B6: TY23289 (antibody, V domains shown)
VH: B4 VH
VL: B5 VL
Work on B6 yielded an EC50 [7] of 133 nM.

B7: TY23291 (antibody, V domains shown)
VH: B4 VH
VL: B5 VL
B7 gave an EC50 [7] of 3660 nM.

B8: TY22776 (antibody, V domains shown)
VH: B4 VH
VL: B4 VL with H4S, D8V, A9P, F10Y, P12Y, Y13A, D15A, S16Y
For B8, the EC50 [5] was 65.9 nM and the masking efficiency [6] was 296.

B9: TY23280 (antibody, V domains shown)
VH: B4 VH
VL: B5 VL
B9 gave an EC50 [7] of 2950 nM.

B10: B15722 (Fab, V domains shown)
VH: EVQLVESGGGLVQPGGSLRLSCAASGFTFSDYGIHWVRQAPGKGLEWIGEIYHSGSTYYSPSLKSRVTISRDNSKNTLYLQLNSLRAEDTAVYYCARDVAPGSSGYYDGFDFWGQGTLVTVSS
VL: DIQLTQSPSSLSASVGDRVTITCRASQGIGSSLAWYQQKPGKAPKLLIYDASNRATGIPSRFSGSGSGTDFTLTISSLQPEDFATYYCQQYDQWPPWTFGQGTKVEIKR
notes: Fab from E. coli; also called Fab hit of TY21587
Work on B10 yielded a Kd [4] of 61.2 nM, a koff [4] of 0.00434 s⁻¹ and a kon [4] of 70900 M⁻¹ s⁻¹.

B11: TY21588 (antibody, V domains shown)
VH: EVQLVESGGGLVQPGGSLRLSCAASGYSISSGYHWDWIRQAPGKGLEWVSGISGYGGSTYYADSVKGRFTISRDNSKNTLYLQLNSLRAEDTAVYYCARHSYYGSGNFDYWGQGTLVTVSS
VL: DIQLTQSPSSLSASVGDRVTITCRASESVDFFGKSFLHWYQQKPGKAPKLLIYDASNLETGVPSRFSGSGSGTDFTLTISSLQPEDFATYYCQQSYSWPPTFGQGTKVEIKR
notes: human IgG1 (hIgG1) from Fab hit B15732
For B11, the “IC50 (read off the curve)” value [8] was about 1 nM, the “% of cells in upper right quadrant (Q2)” value [9] was 32.1% and the “% of cells in upper right quadrant (Q2)” value [10] was 27%. The “% of cells in upper right quadrant (CD80-positive) in the presence of the antibody” value [11] was 19.4% and the “Mean of the CD80 binding signal in the presence of the antibody” value [11] was 8180.

B12: B15717 (Fab, V domains shown)
VH: EVQLVESGGGLVQPGGSLRLSCAASGYTFSGYGIHWVRQAPGKGLEWIGEIYHSGSTYYSPSLKSRVTISRDNSKNTLYLQLNSLRAEDTAVYYCARRIDAFDIWGQGTLVTVSS
VL: B11 VL with E27Q, F32D, K34F, N57S, T60S, S95R, Y96D, P100Y
notes: Fab from E. coli; also called Fab hit of TY21689
Work on B12 yielded a Kd [4] of 105 nM.
